In paper PMC9226187, “Probing TDP-43 condensation using an in silico designed aptamer”:

Biological target: TDP-43 RRM1-2 (UniProt Q13148 102-269)
Test: BLI; BLI: 10 mM potassium phosphate pH 7.2, 150 mM KCl, 0.01% Tween20, 25 °C; biotin-RNA on streptavidin sensors, protein 20 nM-20 µM; PAINT in PBS
Details: protein: recombinant, tags: His6-SUMO tag cleaved (TEV)

TDP-43 RRM1-2, sequence (Q13148 102-269): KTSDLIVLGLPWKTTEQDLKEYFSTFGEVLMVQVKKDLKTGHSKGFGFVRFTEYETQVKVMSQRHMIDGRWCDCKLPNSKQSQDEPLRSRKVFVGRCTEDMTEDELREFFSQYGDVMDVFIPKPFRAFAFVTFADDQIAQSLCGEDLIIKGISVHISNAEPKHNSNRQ

Binder: CGGUGUUGCU (ssRNA) [Apt-1]
- Kd (label: 3' biotin, linear, single-stranded): 100 ± 10 nM

Binder: AGCAACACCG (ssRNA) [nApt-1]
- Kd (label: 5' biotin): 1730 nM
